Experimental data taken from US20240117334A1, “FACTOR B PROTEASES” (Vertex Pharmaceuticals Incorporated, priority 2021, published 2024).
Numbering of substitutions follows the chain as printed. In names and notes the source's numbering stands. Where two headings read alike, the source gives them in different places. Each block holds one molecule with its values, some of them ahead of it.

How the values were obtained:
[1] = tested on: Factor B depleted human serum spiked with human Factor B, rabbit or chicken RBCs; experiment: Factor B add-back hemolysis assay; format: biochemical; conditions: MTSP-1 scaffold, read-out: Hu fB Add-Back EC50
Protocol: Hemolysis assays were performed to evaluate the hemolytic activity of various lots of Factor B, a lot obtained from CompTech as compared to a lot expressed in-house. Briefly, Factor B depleted human serum was used, and plasma purified or recombinant human Factor B was used for the add-back. Rabbit red blood cells (RBCs) or chicken RBCs were washed in GVB/Mg/EGTA, and the depleted serum was spiked with Factor B. The RBC lysis was then monitored with CVF/FD/human Factor B convertase. These were analyzed to create standard curves from which the Factor B lots were compared. FIGS. 5-6 depict a bar graph of controls used for the hemolysis assay and the standard curves measured from the tested engineered proteases from the Factor B add-back hemolysis assay, respectively. […] This engineered protease was tested at two concentrations (samples 1 and 2). All references in this Example to engineered proteases are depicted in chymotrypsin numbering. The chymotrypsin numbering key for the modified protease domains of engineered proteases are found in Tables 2, 4, and 6 for uPA, MTSP-1, and chymase, respectively.

[2] = tested on: EGVD/AE-ACT (SEQ ID NO: 53); experiment: Second order rate constant k*app with EGVD/AE-ACT serpin bait; format: biochemical
Protocol: Selected chymase-based engineered proteases were tested to measure the activity of these proteases, by using an active site titration method based on reaction with the inhibitory serpin bait, followed by HPLC analysis to quantitate the active fraction. All references in this Example, including Table 9, to engineered proteases are depicted in chymotrypsin numbering. See Table 6 for the chymotrypsin numbering key for the modified protease domain of chymase. The HPLC analysis detects a shift in the measured peak when the serpin bait is present, an indication that the protease is binding the bait and therefore active. Briefly, a working concentration of 24 μM of serpin bait was prepared from stock solution, with 50 μM of low molecular weight heparin for antithrombin (AT)-based baits. Protease solutions were prepared by using 30 μL of a 5 μM working solution. Reaction mixtures were incubated for 2 hours at 37° C., and each reaction mixture (protease alone or protease with bait) was analyzed by HPLC using standard protocols. All protease alone samples were run first, then followed by the protease with serpin bait samples. A summary of the results for the proteases tested is summarized in Table 9 below. kcat/Km was measured using EGVD/AE-QF (SEQ ID NO: 52) and second order rate constant K*app was measured using EGVD/AE-ACT (SEQ ID NO: 53).

[3] = tested on: serpins; experiment: Serpin inhibition tests of chymase-based engineered proteases; format: biochemical
Protocol: Inhibition tests were carried out using chymase-based engineered proteases. Various serpins, which are capable of inhibiting protease activity, were used to test whether these could be used for adequate inhibition of the tested chymase-based engineered proteases, to enable selection of an engineered protease resistant to inhibition in plasma. All references in this Example to engineered proteases are depicted in chymotrypsin numbering. The chymotrypsin numbering key for the modified protease domains of engineered proteases are found in Tables 2, 4, and 6 for uPA, MTSP-1, and chymase, respectively.

[4] = Second order rate constant (k*) for inhibition by plasma, extrapolation of half-life in 100% plasma; format: in vitro ADME
Protocol: Briefly, a baseline chymase having the modifications C22S/A226R was used. The concentration of the baseline chymase and the tested chymase-based engineered proteases, listed in Table 11B below, were used at 50 nM, and another tested chymase C22S/L99R/F173Y/K192R/S218L/A226R was used at 25 nM. For the baseline chymase, a time course of protease activity in the presence of plasma was measured using 4.2 uM CPQ2-ITLLSA-K(5FAM)-K-PEG8-K(biotin)-NH2 (SEQ ID NO: 17)/21 uM Neutravidin at 37° C.

[5] = biological target: Human Factor B (Homo sapiens, UniProt P00751); experiment: Human Factor B cleavage EC50 in 80% human plasma (Table 10A); format: biochemical
Protocol: Cleavage of Factor B by various engineered proteases was evaluated. Engineered chymase-, MTSP-1-, and uPA-based proteases were tested. All references in this Example, including Tables 10A, 10B, 11A, and 11B, to engineered proteases are depicted in chymotrypsin numbering. The chymotrypsin numbering key for the modified protease domains of engineered proteases are found in Tables 2, 4, and 6 for uPA, MTSP-1, and chymase, respectively. These experiments were also performed to evaluate the stability of non-naturally occurring chymases in various media, including cynomolgus monkey vitreous humor, human plasma, and phosphate buffered saline (PBS). Briefly, Factor B was diluted into an assay buffer and incubated at 37° C. with naturally occurring (wild type) and non-naturally occurring (engineered) proteases in vitreous humor, plasma, or PBS, and the reactions were quenched with HCl at various time points. The time points tested for chymase include T=0 which used 6 hours pre-incubation, T=2 hours which used 4 hours pre-incubation, T=4 hours which used 2 hours pre-incubation, and T=6 hours which used 0 hours pre-incubation. Assaying of the sample was performed with ELISA, or alpha screen for human C3 cleavage, using standard protocols.
A summary of the results is presented in Tables 10A-10B below, showing the various tested proteases, the concentration of the protease used in nM and the EC50 of human Factor B cleavage. Table 10 presents human Factor B cleavage by various non-naturally occurring chymase-based engineered proteases, tested in 80% human plasma, compared against a chymase comprising the mutation string […]. Blank cells indicate that a test was not performed for a particular protease mutation string.

[6] = Half-life in 50% human plasma of chymase-based engineered proteases; format: in vitro ADME; conditions: EGVD′AE substrate
Protocol: Table 10B presents human Factor B cleavage by various engineered chymase-, MTSP-1-, or uPA-based proteases, tested in mouse or human plasma. For ELISA analysis of Factor B cleavage, briefly, anti-Ba was used, and Bb was detected with anti-Bb. A dynamic range of 25-1600 pM was used. Half-life in 50% human plasma was also calculated for various chymase-based engineered proteases.

[7] = chymase-based engineered proteases, no plasma stated, read-out: fB Cleavage EC50
[8] = read-out: fB Cleavage, 80% plasma EC50, chymase-based, 80% human plasma
[9] = Plasma Inhibitor: plasma antichymotrypsin (plasma ACT)

Sequence of Human Factor B (P00751 26-764): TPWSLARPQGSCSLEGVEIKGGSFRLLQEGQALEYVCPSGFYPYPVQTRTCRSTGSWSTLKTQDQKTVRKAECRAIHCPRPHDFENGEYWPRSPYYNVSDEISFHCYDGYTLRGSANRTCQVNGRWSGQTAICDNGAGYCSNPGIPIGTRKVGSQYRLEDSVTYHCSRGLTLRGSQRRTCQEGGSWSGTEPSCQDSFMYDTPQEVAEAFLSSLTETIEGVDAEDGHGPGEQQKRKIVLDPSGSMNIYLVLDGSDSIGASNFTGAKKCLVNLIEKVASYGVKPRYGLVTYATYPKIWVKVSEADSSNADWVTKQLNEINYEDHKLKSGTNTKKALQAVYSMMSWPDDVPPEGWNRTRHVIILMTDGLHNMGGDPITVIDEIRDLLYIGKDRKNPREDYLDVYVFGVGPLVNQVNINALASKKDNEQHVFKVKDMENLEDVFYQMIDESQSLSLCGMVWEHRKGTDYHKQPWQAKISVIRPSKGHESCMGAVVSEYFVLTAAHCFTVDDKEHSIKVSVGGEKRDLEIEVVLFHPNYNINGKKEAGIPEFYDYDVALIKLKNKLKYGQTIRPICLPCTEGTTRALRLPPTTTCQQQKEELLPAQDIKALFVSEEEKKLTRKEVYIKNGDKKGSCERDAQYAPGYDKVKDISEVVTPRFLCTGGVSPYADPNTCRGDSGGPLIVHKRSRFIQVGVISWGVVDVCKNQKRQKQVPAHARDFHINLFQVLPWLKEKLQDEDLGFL

EC50 [5, 7]: 5.99 µM
B3: C22S/F173L/Y215H/A226R (protein, listed as Homo sapiens)
chain: IIGGTESKPHSRPYMAYLEIVTSNGPSKFCGGFLIRRNFVLTAAHCAGRSITVTLGAHNITEEEDTWQKLEVIKQFRHPKYNTSTLHHDIMLLKLKEKASLTLAVGTLPFPSQFNFVPPGRMCRVAGWGRTGVLKPGSDTLQEVKLRLMDPQACSHLRDFDHNLQLCVGNPRKTKSAFKGDSGGPLLCAGVAQGIVSHGRSDAKPPRVFTRISHYRPWINQILQAN

EC50 [5, 7]: 0.65 µM | EC50 [5, 8]: 21 µM
B6: C22S/F173Y/A226R (protein, listed as Homo sapiens)
chain: B3 chain with L157Y, H198Y
t1/2 in 50% human plasma (min) (EGVD′AE)(SEQ ID NO: 13) [6]: 5.9 min

EC50 [5, 7]: 4.16 µM
B8: C22S/V138L/S189T/A190G/A226R (protein, listed as Homo sapiens)
chain: B3 chain with V125L, L157F, S176T, A177G, H198Y

EC50 [5, 7]: 5.07 µM
B9: C22S/A226R/F228A (protein, listed as Homo sapiens)
chain: B3 chain with L157F, H198Y, F209A

EC50 [5, 7]: 2.98 µM
B13: C22S/V138S/S189T/A226R/F228M (protein, listed as Homo sapiens)
chain: B3 chain with V125S, L157F, S176T, H198Y, F209M

kapp [3, 9]: 1599 M⁻¹ s⁻¹
B15: C22S/A190S/A226R (protein, listed as Homo sapiens)
chain: B3 chain with L157F, A177S, H198Y
t1/2 in 50% human plasma (min) (EGVD′AE)(SEQ ID NO: 13) [6]: 4.2 min

EC50 [5, 7]: 7.13 µM
B16: C22S/V138I/L160V/S189T/A226R (protein, listed as Homo sapiens)
chain: B3 chain with V125I, L146V, L157F, S176T, H198Y

EC50 [5, 7]: 0.564 µM | EC50 [5, 8]: 7.77 µM
B17: C22S/D175N/A226R (protein, listed as Homo sapiens)
chain: B3 chain with L157F, D159N, H198Y
t1/2 in 50% human plasma (min) (EGVD′AE)(SEQ ID NO: 13) [6]: 6.2 min

EC50 [5, 7]: 6.71 µM
B18: C22S/V138T/A190S/V213A/A226R (protein, listed as Homo sapiens)
chain: B3 chain with V125T, L157F, A177S, V196A, H198Y

kapp [3, 9]: 31166 M⁻¹ s⁻¹
B20: C22S: chymase-based engineered protease, chymotrypsin numbering (protein, listed as Homo sapiens)
chain: B3 chain with L157F, H198Y, R207A
k*app EGVD/AE-ACT (SEQ ID NO: 53) [2]: 30.2

Continued, molecule first:

B1: MTSP-1 (protein, listed as Homo sapiens)
chain: VVGGTDADEGEWPWQVSLHALGQGHICGASLISPNWLVSAAHCYIDDRGFRYSDPTQWTAFLGLHDQSQRSAPGVQERRLKRIISHPFFNDFTFDYDIALLELEKPAEYSSMVRPICLPDASHVFPAGKAIWVTGWGHTQYGGTGALILQKGEIRVINQTTCENLLPQQITPRMMCVGFLSGGVDSCQGDSGGPLSSVEADGRIFQAGVVSWGDGCAQRNKPGVYTRLPLFRDWIKENTGV
EC50 ([1]; [Protease]high 400 nM): 0.0322 µM | EC50 ([1]; [Protease]high 4000 nM): 0.0373 µM

B2: C22S/A226R: chymase-based engineered protease, baseline chymase (protein, listed as Homo sapiens)
chain: B3 chain with L157F, H198Y
k*app EGVD/AE-ACT (SEQ ID NO: 53) [2]: 77 | kapp ([3]; Plasma Inhibitor: ACT): 1045 M⁻¹ s⁻¹ | kapp ([3]; Plasma Inhibitor: alpha-2-marcroglobin (A2M)): 812 M⁻¹ s⁻¹ | calculated t1/2 (in 100% plasma) ([4]; extrapolated from k*): 1.58 min | k* ([4]; inhibition by plasma, 37° C.): 7.32E−5 %^−1s^−1 | fB Cleavage, 80% plasma EC50 (nM) ([5]; chymase-based, 80% human plasma): none

B4: C22S/V138L/A226R (protein, listed as Homo sapiens)
chain: B3 chain with V125L, L157F, H198Y
EC50 [5, 7]: 3.48 µM

B5: C22S/V138A/S189T/A226R/F228M (protein, listed as Homo sapiens)
chain: B3 chain with V125A, L157F, S176T, H198Y, F209M
EC50 [5, 7]: 1.77 µM

B7: F41V/L99H/G151V/F173Y/Y215K/R217G/A226R: chymase-based engineered protease (protein, listed as Homo sapiens)
chain: B3 chain with S7C, F29V, L86H, G137V, L157Y, H198K, R200G
k*app EGVD/AE-ACT (SEQ ID NO: 53) [2]: 649

B10: C22S/V138A/A226R (protein, listed as Homo sapiens)
chain: B3 chain with V125A, L157F, H198Y
EC50 [5, 7]: 2.94 µM

B11: C22S/V138A/G145D/S189T/A190S/A226R (protein, listed as Homo sapiens)
chain: B3 chain with V125A, G132D, L157F, S176T, A177S, H198Y
EC50 [5, 7]: 3.81 µM

B12: C22S/V138A/S189T/A226R (protein, listed as Homo sapiens)
chain: B3 chain with V125A, L157F, S176T, H198Y
EC50 [5, 7]: 4.42 µM

B14: C22S/A220S/A226R (protein, listed as Homo sapiens)
chain: B3 chain with L157F, H198Y, A203S
EC50 [5, 7]: 5.56 µM

B19: C22S/S218I/A226R (protein, listed as Homo sapiens)
chain: B3 chain with L157F, H198Y, S201I
t1/2 in 50% human plasma (min) (EGVD′AE)(SEQ ID NO: 13) [6]: 7.8 min | EC50 [5, 7]: 0.83 µM
